We go through 7 molecules from patent US20220033501A1 (SHANGHAI PHARMAEXPLORER, published 2022).

Residue numbers refer to the chain shown, from its start.

First the molecules themselves.
T1: human TIM-3 protein on human PBMC (human, UniProt Q8TDQ0 22-301)
T1 sequence: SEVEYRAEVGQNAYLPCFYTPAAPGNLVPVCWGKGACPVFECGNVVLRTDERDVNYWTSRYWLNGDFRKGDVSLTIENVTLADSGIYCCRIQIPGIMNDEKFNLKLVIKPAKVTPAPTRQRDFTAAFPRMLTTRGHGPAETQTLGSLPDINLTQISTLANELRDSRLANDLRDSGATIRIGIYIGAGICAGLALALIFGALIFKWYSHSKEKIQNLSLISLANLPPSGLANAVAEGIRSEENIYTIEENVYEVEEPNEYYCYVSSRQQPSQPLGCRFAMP

T2: human TIM-3 ECD (antigen protein of the affinity test) (human, UniProt Q8TDQ0 22-200)
T2 sequence: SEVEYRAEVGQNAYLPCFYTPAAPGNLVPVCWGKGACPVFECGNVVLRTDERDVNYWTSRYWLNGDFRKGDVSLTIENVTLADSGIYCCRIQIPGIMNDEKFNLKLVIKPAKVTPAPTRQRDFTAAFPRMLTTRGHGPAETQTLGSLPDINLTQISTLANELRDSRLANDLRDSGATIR

B1: fully human TIM-3 antibody 215A8F2 (antibody, human IgG4, V domains shown)
VH: QVQLQQWGAGLLKPSETLSLTCTVYGGSFSGYYWNWIRQPPGKGLEWLGEINHSGSTNYNPSLKRRVTISVDTSKNQFSLKLSSVTAADTAVYYCARVYYYGPFDFWGQGTLVTVSS
VL: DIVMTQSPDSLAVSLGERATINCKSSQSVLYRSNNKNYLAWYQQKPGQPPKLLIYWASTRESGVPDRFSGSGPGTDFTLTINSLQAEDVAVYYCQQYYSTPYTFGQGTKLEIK
notes: also called antibody number 4
B2: fully human TIM-3 antibody 18D2H2 (antibody, human IgG4, V domains shown)
VH: EVQLVESGGDLVQPGGSLRLSCAASGFTFSTYWMTWVRQAPGRGLEWVANIKQDGSAKYYVDSVKGRFTLSRDDAKNSLYLQMNSLRAEDTAVYYCARGSNWFDYWGQGTLVTVSS
VL: ETVMTQSPATLSVSPGERATLSCRANQNVYSNLAWYQQKPGQAPRLLIYDASTRATGFPARFSGSGSGTEFTLTISSLQSEDFAVYYCQQYNNWPLTFGGGTKVEIK
notes: also called antibody number 2
B3: fully human TIM-3 antibody 34B6D8 (antibody, human IgG4, V domains shown)
VH: B2 VH with D10G, R43K, G44R, D54G, S56G, A57D, L70I, R72T, D74N, Y105P
VL: EIVMTQSPATLSMSPGERATLSCRASQSVYDNLAWYQQKPGQAPRLLIYGASTRATGIPARFSGSGSGTEFTLTISSLQSEDFALYYCQQYTHWPITFGQGTRLEIK
notes: also called antibody number 5
B4: fully human TIM-3 antibody 134H3G6 (antibody, human IgG4, V domains shown)
VH: EVQLVESGGGLVQPGGSLRLSCAASGFTFSNSWMTWVRQAPGKGLEWVANIKQAGTEKYYVDSVKGRFTISRDNAKNSLYLQMNSLRAEDTAVYYCNSGSNYFDYWGQGTLVTVSS
VL: B2 VL with T2I, N26R, V29F, D50G, F58I
notes: also called antibody number 3
B5: fully human TIM-3 antibody 57F4E5 (antibody, human IgG4, V domains shown)
VH: EVQLVESGGGLVQPGGSLRLSCAASGFTFSSYWMSWVRQAPGKGLEWVANIKQDGSEKYYVDSVKGRFTISRDSAKNSLYLQMNSLRAEDTAMYFCARDSNFFDYWGQGTLVTVSS
VL: B2 VL with N26S, N28S, Y30S, Q38R, D50F, A51S, F58I
notes: also called antibody number 7
B6: fully human TIM-3 antibody 39E5H1 (antibody, human IgG4, V domains shown)
VH: EVQLVESGGGLVQPGGSLRLSCAASGFTFSSYWMSWVRQAPGKGLEWVANIKRGGSERYYVDSVKGRFTISGDNAKNSVYLQMNSLRAEDTAVYYCARGSNWFDPWGQGTLVTVSS
VL: B3 VL with I2T, T10I, M13V, D31S, P40L, G50D, L85V, T92N, H93N
notes: also called antibody number 6
B7: fully human TIM-3 antibody 7A4F10 (antibody, human IgG4, V domains shown)
VH: EVQLLESGGGLVQPGGSLRLSCAASGFTFRTHLISWVRQAPGKGLEWVAAITGSGGSTYYADSVKGRFIISRDNSKNTLFLQMNSLRAEDTAVYYCAKDGGSGSYDDFWGQGTLVTVSS
VL: ETVLTQSPVTLSLSPGERATLSCRASQSVGSYLAWYQQKPGQAPRLLIYDASNRATGIPARFSGSGSGTDFTLTISSLEPEDFAVYYCQQRSNWPPTFGQGTKVEIK
notes: also called antibody number 1

In the first test the target is T1, human TIM-3 protein on human PBMC. The experiment in a line: cell-based or functional assay.
As for B1, the “IFN-γ production, lymphocyte activation assay (donor Y), antibody 0.1 µg/ml, N = 1” value (“IFN-γ production … antibody 0.1 µg/ml, N = 1” below) is 2600 pg/mL; the “IFN-γ production, lymphocyte activation assay (donor Y), antibody 0.1 µg/ml, N = 2” value (“IFN-γ production … antibody 0.1 µg/ml, N = 2” below) stood at 2340 pg/mL; the “IFN-γ production, lymphocyte activation assay (donor Y), antibody 1 µg/ml, N = 1” value (“IFN-γ production … antibody 1 µg/ml, N = 1” below) was 3320 pg/mL; the “IFN-γ production, lymphocyte activation assay (donor Y), antibody 1 µg/ml, N = 2” value (from here on “IFN-γ production … antibody 1 µg/ml, N = 2”) stood at 2560 pg/mL. Besides, the “IFN-γ production, lymphocyte activation assay (donor Y), antibody 10 µg/ml, N = 1” value (shortened to “IFN-γ production … antibody 10 µg/ml, N = 1”) is 3140 pg/mL; the “IFN-γ production, lymphocyte activation assay (donor Y), antibody 10 µg/ml, N = 2” value (“IFN-γ production … antibody 10 µg/ml, N = 2” for short) is 2790 pg/mL; the “IFN-γ production, lymphocyte activation assay (donor Y), antibody concentration head printed '0' (fifth), N = 1” value (“IFN-γ production … (fifth), N = 1” below) came to 2380 pg/mL; the “IFN-γ production, lymphocyte activation assay (donor Y), antibody concentration head printed '0' (fifth), N = 2” value (“IFN-γ production … (fifth), N = 2” for short) amounted to 2070 pg/mL. Moreover, the “IFN-γ production, lymphocyte activation assay (donor Y), antibody concentration head printed '0' (fourth), N = 1” value (from here on “IFN-γ production … (fourth), N = 1”) was determined as 1990 pg/mL and the “IFN-γ production, lymphocyte activation assay (donor Y), antibody concentration head printed '0' (fourth), N = 2” value (shortened to “IFN-γ production … (fourth), N = 2”) was 2000 pg/mL.

B2: the “IFN-γ production … antibody 0.1 µg/ml, N = 1” value turned out to be 2540 pg/mL; the “IFN-γ production … antibody 0.1 µg/ml, N = 2” value stood at 2750 pg/mL; the “IFN-γ production … antibody 1 µg/ml, N = 1” value is 3110 pg/mL; the “IFN-γ production … antibody 1 µg/ml, N = 2” value was found to be 2860 pg/mL. The “IFN-γ production … antibody 10 µg/ml, N = 1” value worked out at 3050 pg/mL; the “IFN-γ production … antibody 10 µg/ml, N = 2” value is 3130 pg/mL; the “IFN-γ production … (fifth), N = 1” value was 2130 pg/mL; the “IFN-γ production … (fifth), N = 2” value was 2050 pg/mL. The “IFN-γ production … (fourth), N = 1” value amounted to 2200 pg/mL and the “IFN-γ production … (fourth), N = 2” value is 2240 pg/mL.

On to B3, for which the “IFN-γ production … antibody 0.1 µg/ml, N = 1” value turned out to be 2890 pg/mL; the “IFN-γ production … antibody 0.1 µg/ml, N = 2” value is 2900 pg/mL; the “IFN-γ production … antibody 1 µg/ml, N = 1” value is 3050 pg/mL; the “IFN-γ production … antibody 1 µg/ml, N = 2” value came to 3830 pg/mL. Besides, the “IFN-γ production … antibody 10 µg/ml, N = 1” value is 3520 pg/mL; the “IFN-γ production … antibody 10 µg/ml, N = 2” value turned out to be 3630 pg/mL; the “IFN-γ production … (fifth), N = 1” value turned out to be 1820 pg/mL; the “IFN-γ production … (fifth), N = 2” value was 2040 pg/mL. The “IFN-γ production … (fourth), N = 1” value amounted to 2130 pg/mL and the “IFN-γ production … (fourth), N = 2” value came to 2300 pg/mL.

Regarding B4, the “IFN-γ production … antibody 0.1 µg/ml, N = 1” value stood at 2220 pg/mL; the “IFN-γ production … antibody 0.1 µg/ml, N = 2” value is 2550 pg/mL; the “IFN-γ production … antibody 1 µg/ml, N = 1” value was 3200 pg/mL; the “IFN-γ production … antibody 1 µg/ml, N = 2” value turned out to be 3230 pg/mL. Besides, the “IFN-γ production … antibody 10 µg/ml, N = 1” value was 3400 pg/mL; the “IFN-γ production … antibody 10 µg/ml, N = 2” value was determined as 3910 pg/mL; the “IFN-γ production … (fifth), N = 1” value came to 1810 pg/mL; the “IFN-γ production … (fifth), N = 2” value was 2120 pg/mL. Moreover, the “IFN-γ production … (fourth), N = 1” value worked out at 2030 pg/mL and the “IFN-γ production … (fourth), N = 2” value was 2260 pg/mL.

On to B5, for which the “IFN-γ production … antibody 0.1 µg/ml, N = 1” value was determined as 3210 pg/mL; the “IFN-γ production … antibody 0.1 µg/ml, N = 2” value is 2870 pg/mL; the “IFN-γ production … antibody 1 µg/ml, N = 1” value is 3550 pg/mL; the “IFN-γ production … antibody 1 µg/ml, N = 2” value stood at 3610 pg/mL. In addition, the “IFN-γ production … antibody 10 µg/ml, N = 1” value came out at 3960 pg/mL; the “IFN-γ production … antibody 10 µg/ml, N = 2” value came to 3660 pg/mL; the “IFN-γ production … (fifth), N = 1” value was 2150 pg/mL; the “IFN-γ production … (fifth), N = 2” value is 2100 pg/mL. For the same molecule, the “IFN-γ production … (fourth), N = 1” value came to 2310 pg/mL and the “IFN-γ production … (fourth), N = 2” value was found to be 2050 pg/mL.

B6: the “IFN-γ production … antibody 0.1 µg/ml, N = 1” value was 2710 pg/mL; the “IFN-γ production … antibody 0.1 µg/ml, N = 2” value was 2710 pg/mL; the “IFN-γ production … antibody 1 µg/ml, N = 1” value stood at 3400 pg/mL; the “IFN-γ production … antibody 1 µg/ml, N = 2” value was determined as 3600 pg/mL. The “IFN-γ production … antibody 10 µg/ml, N = 1” value was 3500 pg/mL; the “IFN-γ production … antibody 10 µg/ml, N = 2” value was determined as 4120 pg/mL; the “IFN-γ production … (fifth), N = 1” value turned out to be 1840 pg/mL; the “IFN-γ production … (fifth), N = 2” value was found to be 2100 pg/mL. The “IFN-γ production … (fourth), N = 1” value turned out to be 2090 pg/mL and the “IFN-γ production … (fourth), N = 2” value is 1950 pg/mL.

As for B7, the “IFN-γ production … antibody 0.1 µg/ml, N = 1” value was found to be 3150 pg/mL; the “IFN-γ production … antibody 0.1 µg/ml, N = 2” value is 3220 pg/mL; the “IFN-γ production … antibody 1 µg/ml, N = 1” value came out at 3330 pg/mL; the “IFN-γ production … antibody 1 µg/ml, N = 2” value is 3220 pg/mL. Moreover, the “IFN-γ production … antibody 10 µg/ml, N = 1” value was 3340 pg/mL; the “IFN-γ production … antibody 10 µg/ml, N = 2” value came out at 3890 pg/mL; the “IFN-γ production … (fifth), N = 1” value was found to be 2180 pg/mL; the “IFN-γ production … (fifth), N = 2” value is 2090 pg/mL. For the same molecule, the “IFN-γ production … (fourth), N = 1” value came out at 2250 pg/mL and the “IFN-γ production … (fourth), N = 2” value is 2160 pg/mL.

In another test the target is T2, human TIM-3 ECD (antigen protein of the …). As to the kind of experiment: AHC sensor kinetics, antibody captured on sensor, antigen protein in solution, global 1:1 fit. How it is done: First, AHC sensor was selected, and the sensor was balanced with buffer solution for 10 min, then the antibody to be tested was diluted to 5 μg/ml with buffer solution, and the antibody was solidified with the sensor for 3-5 min, with a signal value of 1-2 nm. The sensor was balanced again with buffer solution for 3 minutes, and then the antigen protein was diluted to 100 nM (the highest concentration was tentatively 100 nM) to bind and dissociate the antibody coupled by the sensor. If enough signal value was obtained, the antigen protein was diluted by several concentration gradients to analyze the binding and dissociation of antibody and antigen. At that end of each cycle, the sensor surface was regenerated with 10 mM, pH 1.5 Glycine. The kinetic rate constant needed to be subtracted the blank control, and the data was fitted with the global fit analysis method 1:1 combination model. The dissociation equilibrium rate constant (KD) was calculated according to the following formula: KD=kd/ka.
Usually Kd stands for the equilibrium constant for the complex coming apart. In general, koff refers to the first-order rate constant of dissociation. As usually defined, the kon is a measure of how fast the partners come together. Consider B1, for which the Kd amounted to 0.133 nM, the koff amounted to 0.000128 s⁻¹ and the kon was 965000 M⁻¹ s⁻¹.

For the molecule B2, the Kd stood at 2.58 nM, the koff was determined as 0.00313 s⁻¹ and the kon turned out to be 1.22e+06 M⁻¹ s⁻¹.

For B3, the Kd is 1.05 nM, the koff amounted to 0.0012 s⁻¹ and the kon is 1.15e+06 M⁻¹ s⁻¹.

As for B4, the Kd turned out to be 4.05 nM, the koff was 0.00483 s⁻¹ and the kon was 1.19e+06 M⁻¹ s⁻¹.

B5: the Kd turned out to be 2.48 nM, the koff was found to be 0.00397 s⁻¹ and the kon was 1.6e+06 M⁻¹ s⁻¹.

As to B6, the Kd stood at 1.46 nM, the koff amounted to 0.00155 s⁻¹ and the kon came out at 1.06e+06 M⁻¹ s⁻¹.

Regarding B7, the Kd is 1.01 nM, the koff worked out at 0.00113 s⁻¹ and the kon was 1.11e+06 M⁻¹ s⁻¹.
